The values below come from US20220033481A1 (NANJING LEGEND BIOTECH, published 2022).

For orientation: Kd means the concentration at which binding is half-saturated. The koff is the first-order rate constant of dissociation. The kon is the rate constant with which the complex forms.

The target in test [1] is T1, cynomolgus monkey transferrin (cynomolgus monkey, UniProt A0A2K5UXZ0 20-695).
T1 construct: also called cynomolgus transferrin
In words: SPR, BIAcore T200, cynomolgus monkey transferrin as ligand, sdAb as analyte. (In general: Surface plasmon resonance follows binding to a sensor surface in real time, without labels.)

The target of test [2] is T2, human transferrin (human, UniProt P02787 20-698). In words: SPR, BIAcore T200, human transferrin amine-coupled to CM5 chip, sdAb injected. As for the experimental part: Experiments were performed using a BIAcore T200 optical sensor platform and research grade CM5 sensor chips (GE Healthcare; Little Chalfont, United Kingdom). Human transferrin was immobilized on the sensor chip surface by standard amine coupling. All experiments were carried out in HEPES buffer [10 mM HEPES (pH 7.4), 150 mM NaCl, 3.4 mM EDTA, 0.005% Tween 20] at 25° C. […] The amount of bound analyte after subtraction from the blank control surface is shown as relative response units (RU). The double referenced sensorgrams from each injection series were analyzed for binding kinetics using BIA evaluation software (GE Healthcare). Dissociation constants (KDs) were calculated from the on- and off-rates (kₒₙ and koff, respectively), as determined by global fitting of the experimental data to a 1:1 Langmuir binding model (Chi²<1).
T2 sequence (P02787 20-698 limits assumed): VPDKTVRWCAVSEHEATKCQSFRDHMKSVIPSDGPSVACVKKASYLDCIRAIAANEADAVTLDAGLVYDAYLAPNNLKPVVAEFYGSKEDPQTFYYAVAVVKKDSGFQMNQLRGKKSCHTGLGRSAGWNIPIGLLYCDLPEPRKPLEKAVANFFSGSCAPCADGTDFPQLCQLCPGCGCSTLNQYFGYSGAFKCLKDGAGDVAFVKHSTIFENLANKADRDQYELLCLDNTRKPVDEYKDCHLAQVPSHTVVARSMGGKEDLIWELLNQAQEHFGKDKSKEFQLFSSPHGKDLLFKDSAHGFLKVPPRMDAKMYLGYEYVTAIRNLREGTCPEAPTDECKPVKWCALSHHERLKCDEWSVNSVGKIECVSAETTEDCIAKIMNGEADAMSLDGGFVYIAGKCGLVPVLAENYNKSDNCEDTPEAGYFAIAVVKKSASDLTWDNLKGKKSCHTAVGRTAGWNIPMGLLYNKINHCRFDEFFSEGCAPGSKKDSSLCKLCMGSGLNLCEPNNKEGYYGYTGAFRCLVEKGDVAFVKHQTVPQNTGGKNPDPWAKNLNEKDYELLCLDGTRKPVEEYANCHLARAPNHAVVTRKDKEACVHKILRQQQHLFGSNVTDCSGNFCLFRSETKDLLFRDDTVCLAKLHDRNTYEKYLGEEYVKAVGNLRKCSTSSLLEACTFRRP

The target of test [3] is T2, human transferrin. Kind of test: SPR, BIAcore T200, sdAb amine-coupled to CM5 chip, transferrin injected. As for the experimental part:
(§1) Experiments were performed using a BIAcore T200 optical sensor platform and research grade CM5 sensor chips (GE Healthcare). AS01274 sdAb and AS01299 sdAb were immobilized on the sensor chip surface by standard amine coupling. All experiments were carried out in HEPES buffer [10 mM HEPES (pH 7.4), 150 mM NaCl, 3.4 mM EDTA, 0.005% Tween 20] at 25° C. Human Transferrin and Cynomolgus monkey Transferrin were injected at serial dilutions ranging from 3.9 nM to 2000 nM at a flow rate of 30 μl/min unless otherwise indicated. The amount of bound analyte after subtraction from the blank control surface is shown as relative response units (RU). The double referenced sensorgrams from each injection series were analyzed for binding kinetics using BIA evaluation software (GE Healthcare). Dissociation constants (KDs) were calculated from the on- and off-rates (kₒₙ and koff, respectively), as determined by global fitting of the experimental data to a 1:1 Langmuir binding model (Chi²<1).

For test [4], the target named is T1, cynomolgus monkey transferrin. The description is as above. On the procedure:
as §1

B1: AS01274VHa (VHH)
VHH: EVQLVESGGGLVQPGGSLRLSCAASGSIASIATMAWYRQAPGKGLELVAGITRGGSTKYADSVKGRFTISRDNSKNTLYLQMNSLRAEDTAVYYCTDYSRKYYQDYWGQGTLVTVSS
notes: Humanized variant of AS01274, C-terminal 6xHis tag
Regarding B1, in test [1], binding was put at a Kd of 0.011 nM, the koff came out at 8.1e-05 s⁻¹ and the kon is 7.3e+06 M⁻¹ s⁻¹. Moreover, in test [2], the Kd was 0.13 nM, the koff turned out to be 0.0002 s⁻¹ and the kon came out at 1.5e+06 M⁻¹ s⁻¹.

B2: AS01274VHa-A49 (VHH)
VHH: EVQLVESGGGLVQPGGSLRLSCAASGSIASIATMAWYRQAPGKGLELVSGITRGGSTKYADSVKGRFTISRDNSKNTLYLQMNSLRAEDTAVYYCTDYSRKYYQDYWGQGTLVTVSS
notes: as for B1
In test [1], B2 returned a Kd of 0.009 nM, a dissociation rate constant (koff) of 7.9e-05 s⁻¹ and a kon of 8.7e+06 M⁻¹ s⁻¹. In test [2], this molecule came in with a Kd of 0.11 nM, a koff of 0.00016 s⁻¹ and a kon of 1.5e+06 M⁻¹ s⁻¹.

B3: AS01299 sdAb (VHH)
VHH: QVQLVESGGGLVQPGGSLRLSCAASGSIFSIATMAWYRQAPGKQRELVAGITRSGSTNYRDSVKGRFTISRDNAKNTMYLQMNSLKPEDTAVYYCTDYSSRYYHDYWGQGTQVTVSS
notes: Llama sdAb made in E. coli with a C-terminal 6xHis tag; also called sdAb AS01299
As to B3, the Kd in test [3] was 140 nM; in test [4] it was 8.8 nM; in test [1] it was 0.065 nM; in test [2], 0.98 nM. The koff in test [3] was 0.0031 s⁻¹; in test [4], 0.00046 s⁻¹; in test [1], 0.00056 s⁻¹; in test [2], 0.0022 s⁻¹. Further, the kon in test [3] stood at 22000 M⁻¹ s⁻¹; in test [4] it was 52000 M⁻¹ s⁻¹; in test [1], 8.6e+06 M⁻¹ s⁻¹; in test [2], 2.2e+06 M⁻¹ s⁻¹.

B4: AS01299VH4-L47 (VHH)
VHH: EVQLVESGGGLVQPGGSLRLSCAASGSIFSIATMAWYRQAPGKGLEWVSGITRSGSTNYRDSVKGRFTISRDNSKNTLYLQMNSLRAEDTAVYYCTDYSSRYYHDYWGQGTLVTVSS
notes: Humanized variant of AS01299, C-terminal 6xHis tag; also called AS01299VH4-L47-2
As to B4, in test [1], binding was put at a Kd of 0.071 nM, the koff was 0.00066 s⁻¹ and the kon is 9.3e+06 M⁻¹ s⁻¹. In test [2], this molecule showed a Kd of 6 nM, a koff of 0.0035 s⁻¹ and a kon of 590000 M⁻¹ s⁻¹.

B5: AS01274 sdAb (VHH)
VHH: QVQLVESGGGLVQPGGSLRLSCVASGSIASIATMAWYRQAPGQQRELVAGITRGGSTKYADSVKGRFTISRDNAKNTLYLQMNSLKPDDTAVYYCTDYSRKYYQDYWGQGTQVTVSS
notes: Llama sdAb made in E. coli with a C-terminal 6xHis tag; also called sdAb AS01274
B5: the Kd in test [3] stood at 16 nM; in test [4] it was 1.6 nM; in test [1] it was 0.0067 nM; in test [2], 0.09 nM. In addition, the koff in test [3] worked out at 0.00019 s⁻¹; in test [4], 4.4e-05 s⁻¹; in test [1] it was 8.9e-05 s⁻¹; in test [2], 0.0003 s⁻¹. Further, the kon was found to be 12000 M⁻¹ s⁻¹ in test [3], 27000 M⁻¹ s⁻¹ in test [4], 1.3e+07 M⁻¹ s⁻¹ in test [1] and 3.3e+06 M⁻¹ s⁻¹ in test [2].

B6: AS01299VH3a (VHH)
VHH: EVQLVESGGGLVQPGGSLRLSCAASGSIFSIATMAWYRQAPGKGLELVAGITRSGSTNYRDSVKGRFTISRDNSKNTMYLQMNSLRAEDTAVYYCTDYSSRYYHDYWGQGTLVTVSS
notes: Humanized variant of AS01299, C-terminal 6xHis tag
In test [1], B6 displayed a Kd of 0.057 nM, a koff of 0.00028 s⁻¹ and a kon of 4.9e+06 M⁻¹ s⁻¹. Also, in test [2], the affinity, expressed as Kd, was 1.3 nM; the koff amounted to 0.0011 s⁻¹; the kon was found to be 810000 M⁻¹ s⁻¹.

B7: AS01299VH3a-M78 (VHH)
VHH: EVQLVESGGGLVQPGGSLRLSCAASGSIFSIATMAWYRQAPGKGLELVAGITRSGSTNYRDSVKGRFTISRDNSKNTLYLQMNSLRAEDTAVYYCTDYSSRYYHDYWGQGTLVTVSS
notes: as for B6
As to B7, in test [1], the Kd came out at 0.058 nM, the koff was determined as 0.0003 s⁻¹ and the kon is 5.2e+06 M⁻¹ s⁻¹. Moreover, in test [2], the Kd turned out to be 1.1 nM, the koff came out at 0.0012 s⁻¹ and the kon came out at 1e+06 M⁻¹ s⁻¹.

B8: AS01299VH4 (VHH)
VHH: EVQLVESGGGLVQPGGSLRLSCAASGSIFSIATMAWYRQAPGKGLELVSGITRSGSTNYRDSVKGRFTISRDNSKNTLYLQMNSLRAEDTAVYYCTDYSSRYYHDYWGQGTLVTVSS
notes: as for B6
Turning to B8, in test [1], the Kd was 0.054 nM, the koff is 0.0003 s⁻¹ and the kon turned out to be 5.7e+06 M⁻¹ s⁻¹. In test [2], this molecule showed a Kd of 1.1 nM, an off-rate (koff) of 0.0011 s⁻¹ and a kon of 1e+06 M⁻¹ s⁻¹.

B9: AS01299VH3a-A49 (VHH)
VHH: EVQLVESGGGLVQPGGSLRLSCAASGSIFSIATMAWYRQAPGKGLELVSGITRSGSTNYRDSVKGRFTISRDNSKNTMYLQMNSLRAEDTAVYYCTDYSSRYYHDYWGQGTLVTVSS
notes: as for B6
In the case of B9, in test [1], the Kd turned out to be 0.1 nM, the koff stood at 0.00027 s⁻¹ and the kon is 2.6e+06 M⁻¹ s⁻¹. In test [2], the affinity, expressed as Kd, was 2.4 nM; the off-rate (koff) was determined as 0.001 s⁻¹; the kon stood at 420000 M⁻¹ s⁻¹.

B10: AS01299VH3a-L47 (VHH)
VHH: EVQLVESGGGLVQPGGSLRLSCAASGSIFSIATMAWYRQAPGKGLEWVAGITRSGSTNYRDSVKGRFTISRDNSKNTMYLQMNSLRAEDTAVYYCTDYSSRYYHDYWGQGTLVTVSS
notes: Humanized variant of AS01299, C-terminal 6xHis tag; also called AS01299VH3a-L47-2
On to B10, for which, in test [1], the Kd is 0.053 nM, the koff stood at 0.00048 s⁻¹ and the association rate constant (kon) is 8.9e+06 M⁻¹ s⁻¹. In test [2], this molecule returned a Kd of 3.7 nM, a koff of 0.0025 s⁻¹ and a kon of 680000 M⁻¹ s⁻¹.
